Target: cellular receptor used by the virus to infect target cells (ARPE 19 epithelial cells)
Assay: cell-based or functional assay

## soluble HCMV pentameric complex (gH, gL, pUL128, pUL130, pUL131), purified, tag-free, produced in CHO-K1SV cells (from UniProt P12824 26-713; Q68672 32-278; P16837 23-171; F5HCP3 28-213; F5HET4 19-129)
  IC50, inhibition of HCMV infection of ARPE 19 epithelial cells (complex pre-incubated with the target cells): 1.9 nM
